According to patent US20140179594A1, “STREPTOCOCCUS BACTERIOPHAGE LYSINS FOR TREATMENT OF GRAM POSITIVE BACTERIA IN COMPANION ANIMALS AND LIVESTOCK” (priority 2011, published 2014):

How the values were obtained:
Format in all cases: cell-based
M. luteus 4698 = assay: ΔPlySs1 OD600 lysis, 1 hr
S. aureus RN4220 = assay: ΔPlySs1 OD600 lysis, 1 hr
[1] = system: Group E streptococci K131; assay: ΔPlySs1 OD600 lysis, 1 hr
S. salivarius 9222 = assay: ΔPlySs1 OD600 lysis, 1 hr
S. sanguinis 10556 = assay: ΔPlySs1 OD600 lysis, 1 hr
S. oralis 35037 = assay: ΔPlySs1 OD600 lysis, 1 hr
L. monocytogenes HER1084 = assay: ΔPlySs1 OD600 lysis, 1 hr
S. equi 700400 = assay: ΔPlySs1 OD600 lysis, 1 hr
S. gordonii 10558 = assay: ΔPlySs1 OD600 lysis, 1 hr
S. equi 9528 = assay: ΔPlySs1 OD600 lysis, 1 hr
S. agalactiae type II = assay: ΔPlySs1 OD600 lysis, 1 hr
S. suis strain (7711) = assay: PlySs1 optimal biochemical conditions, turbidity reduction (OD600); conditions: for pH of maximal lysis: bis-tris-propane (BTP) buffer
Description: FIGS. 11A and 11B depicts ΔPlySs1 pH dependence. (A) Cells of host strain 7711 were suspended in phosphate citrate buffer (40/20 mM) at a range of pH-values from 4.6 to 8.0. ΔPlySs1 was added (110 μg/ml) and OD600 was measured over 60 min (horizontal axis) at 37° C. The vertical axis represents the treated/untreated OD600-ratio at each timepoint. For each pH-value, the curve depicts the running average of 3 independent experiments. Overall, activity was maximal at the upper end of the buffering range. (B) Here, bis-tris-propane (40 mM) was employed as the buffering agent with a pH-range from 7.0 to 9.7; ΔPlySs1 was again added to 110 μg/ml. Each curve depicts the running average of 3 experiments.
FIG. 12 depicts ΔPLySS1 NaCl dependence. S. suis 7711 cells were suspended in phosphate-citrate buffer pH=7.8 (40/20 mM). NaCl was added to the above concentrations, followed by ΔPlySs1 at 110 μg/ml. Optical density at 600 nm was observed over 60 min at 37° C. In this figure, the vertical axis represents the treated/untreated OD600-ratio for each NaCl concentration, averaged over 3 independent experiments.
FIGS. 13A and 13B provides assessment of ΔPlySs1 DTT and EDTA susceptibility. (A) ΔPlySs1 was pre-incubated for 1 hr with 5 mM DTT (a large molar excess) prior to addition to 7711 cells; activity was unchanged. (B) Here, various concentrations of EDTA were included in the buffered suspension of cells prior to addition of ΔPlySs1 (110 μg/ml lysin). For both images, the vertical axis represents the treated/untreated OD600-ratio for each condition, averaged over 3 independent experiments.
(A) A ΔPlySs1 stock solution was held at each of the above temperature for 30 minutes, followed by addition to 7711 cells (270 μg/ml final enzyme concentration, final temperature=37° C., ideal buffering conditions). The curves in this image represent running averages of 3 individual experiments. In each case, complete loss of activity was observed between the 45° C. and 50° C. samples. The 3 hottest samples show a slightly higher OD600 reading than the untreated control due to flocculation of ΔPlySs1 upon denaturation. (B) The above experiment was repeated, but with 6 hours of heat-treatment prior to the assay. […] The 40° C. sample maintained essentially native activity.
The optimal biochemical conditions for PlySs1 were determined against live cells of the encoding S. suis strain (7711). For these experiments, activity was gauged through the degree of turbidity reduction (OD600) of an aqueous bacterial suspension following the addition of lysin. The pH-dependence of the enzyme was first addressed using two buffer sets with adjacent pH ranges, citrate/phosphate: 4.6-8.0; and bis-tris-propane (BTP): 7.0-9.7. An extended spectrum of lysis was observed, from 5.4-9.4 (FIG. 11A). In BTP, lysis was maximal from 8.2-9.0; at commensurate pH-values, however, the magnitude of the OD-drop was slightly more pronounced in citrate/phosphate (FIG. 11B).
At constant enzyme concentrations, bacteriolysis varied little from 0-1000 mM NaCl, with only small numeric increases under the most hypotonic conditions (FIG. 12). […] The thermal stability of PlySs1 was examined by incubating the enzyme at various elevated temperatures prior to use (the OD-drop experiment itself was always conducted at 37° C.). When held at 35° C.-60° C. for 30 min, lysin activity was virtually unaffected until 50° C., at which point it was completely abolished (FIG. 14A). […] The latter corresponds to typical porcine body temperature.

B1: ΔPlySs1: truncated PlySs1 lysin with N-terminal enzymatic and central binding domains, N-terminal 254 amino acids, SEQ ID NO:2 (protein, listed as Streptococcus suis)
chain: MTINLETSIRWMSDRVGKVSYSMDYRNGPNSYDCSSAVYYALMAGGAISAGWAVNTEYMHDWLIRNGYVLVAENKPFNAQRHDVCILGKRGYSSGAGGHVVIFVDNVNVIHCNYARNGISIDNYNQVHRGMYYYLYRPANQPSISNKSLDQLVKETLAGVHGNGDTRKASLGSQYEAVMAVINGKASASEKSDEELAREVLAGKHGAGEDRKRSLGPRYEPVQAKVNELLKAKEKPSETAKNEPQTVQFKEDGDL
1-hour treated/untreated OD600-ratio (M. luteus 4698; 6.5 μg/ml): 0.84
1-hour treated/untreated OD600-ratio (M. luteus 4698; 13 μg/ml): 0.90
1-hour treated/untreated OD600-ratio (M. luteus 4698; 30 μg/ml): 0.83
1-hour treated/untreated OD600-ratio (M. luteus 4698; 65 μg/ml): 0.87
1-hour treated/untreated OD600-ratio (M. luteus 4698; 130 μg/ml): 0.82
1-hour treated/untreated OD600-ratio (S. aureus RN4220; 6.5 μg/ml): 0.89
1-hour treated/untreated OD600-ratio (S. aureus RN4220; 13 μg/ml): 0.78
1-hour treated/untreated OD600-ratio (S. aureus RN4220; 30 μg/ml): 0.55
1-hour treated/untreated OD600-ratio (S. aureus RN4220; 65 μg/ml): 0.31
1-hour treated/untreated OD600-ratio (S. aureus RN4220; 130 μg/ml): 0.10
1-hour treated/untreated OD600-ratio ([1]; 6.5 μg/ml): 0.69
1-hour treated/untreated OD600-ratio ([1]; 13 μg/ml): 0.50
1-hour treated/untreated OD600-ratio ([1]; 30 μg/ml): 0.33
1-hour treated/untreated OD600-ratio ([1]; 65 μg/ml): 0.22
1-hour treated/untreated OD600-ratio ([1]; 130 μg/ml): 0.15
1-hour treated/untreated OD600-ratio (S. salivarius 9222; 6.5 μg/ml): 0.80
1-hour treated/untreated OD600-ratio (S. salivarius 9222; 13 μg/ml): 0.76
1-hour treated/untreated OD600-ratio (S. salivarius 9222; 30 μg/ml): 0.56
1-hour treated/untreated OD600-ratio (S. salivarius 9222; 65 μg/ml): 0.53
1-hour treated/untreated OD600-ratio (S. salivarius 9222; 130 μg/ml): 0.37
1-hour treated/untreated OD600-ratio (S. sanguinis 10556; 6.5 μg/ml): 0.48
1-hour treated/untreated OD600-ratio (S. sanguinis 10556; 13 μg/ml): 0.44
1-hour treated/untreated OD600-ratio (S. sanguinis 10556; 30 μg/ml): 0.28
1-hour treated/untreated OD600-ratio (S. sanguinis 10556; 65 μg/ml): 0.21
1-hour treated/untreated OD600-ratio (S. sanguinis 10556; 130 μg/ml): 0.11
1-hour treated/untreated OD600-ratio (S. oralis 35037; 6.5 μg/ml): 0.30
1-hour treated/untreated OD600-ratio (S. oralis 35037; 13 μg/ml): 0.13
1-hour treated/untreated OD600-ratio (S. oralis 35037; 30 μg/ml): 0.08
1-hour treated/untreated OD600-ratio (S. oralis 35037; 65 μg/ml): 0.07
1-hour treated/untreated OD600-ratio (S. oralis 35037; 130 μg/ml): 0.04
1-hour treated/untreated OD600-ratio (L. monocytogenes HER1084; 6.5 μg/ml): 0.63
1-hour treated/untreated OD600-ratio (L. monocytogenes HER1084; 13 μg/ml): 0.52
1-hour treated/untreated OD600-ratio (L. monocytogenes HER1084; 30 μg/ml): 0.26
1-hour treated/untreated OD600-ratio (L. monocytogenes HER1084; 65 μg/ml): 0.14
1-hour treated/untreated OD600-ratio (L. monocytogenes HER1084; 130 μg/ml): 0.04
1-hour treated/untreated OD600-ratio (S. equi 700400; 6.5 μg/ml): 0.48
1-hour treated/untreated OD600-ratio (S. equi 700400; 13 μg/ml): 0.25
1-hour treated/untreated OD600-ratio (S. equi 700400; 30 μg/ml): 0.15
1-hour treated/untreated OD600-ratio (S. equi 700400; 65 μg/ml): 0.07
1-hour treated/untreated OD600-ratio (S. equi 700400; 130 μg/ml): 0.09
1-hour treated/untreated OD600-ratio (S. gordonii 10558; 6.5 μg/ml): 0.76
1-hour treated/untreated OD600-ratio (S. gordonii 10558; 13 μg/ml): 0.32
1-hour treated/untreated OD600-ratio (S. gordonii 10558; 30 μg/ml): 0.19
1-hour treated/untreated OD600-ratio (S. gordonii 10558; 65 μg/ml): 0.09
1-hour treated/untreated OD600-ratio (S. gordonii 10558; 130 μg/ml): 0.06
1-hour treated/untreated OD600-ratio (S. equi 9528; 6.5 μg/ml): 0.66
1-hour treated/untreated OD600-ratio (S. equi 9528; 13 μg/ml): 0.45
1-hour treated/untreated OD600-ratio (S. equi 9528; 30 μg/ml): 0.25
1-hour treated/untreated OD600-ratio (S. equi 9528; 65 μg/ml): 0.19
1-hour treated/untreated OD600-ratio (S. equi 9528; 130 μg/ml): 0.16
1-hour treated/untreated OD600-ratio (S. agalactiae type II; 6.5 μg/ml): 0.61
1-hour treated/untreated OD600-ratio (S. agalactiae type II; 13 μg/ml): 0.21
1-hour treated/untreated OD600-ratio (S. agalactiae type II; 30 μg/ml): 0.11
1-hour treated/untreated OD600-ratio (S. agalactiae type II; 65 μg/ml): 0.08
1-hour treated/untreated OD600-ratio (S. agalactiae type II; 130 μg/ml): 0.04
effect of salt concentration on bacteriolysis (S. suis strain (7711); 0-1000 mM NaCl, constant enzyme concentration): varied little
thermal stability, activity after heat treatment (S. suis strain (7711); 6-hr incubation at 40° C.): unaffected
thermal stability, activity after heat treatment (S. suis strain (7711); 6-hr incubation at 45° C.): partial decrease in activity
pH of maximal lysis (S. suis strain (7711); S. suis 7711): 9.0
pH of maximal lysis (S. suis strain (7711); S. suis 7711, listed as PlySs1): 8.2-9.0
pH spectrum of lysis (S. suis strain (7711); S. suis 7711, citrate/phosphate 4.6-8.0 and bis-tris-propane 7.0-9.7): 5.4-9.4
effect of DTT on activity (S. suis strain (7711); exposure to an excess of DTT (5 mM, 1 hr pre-incubation)): did not negatively impact activity
effect of EDTA on activity (S. suis strain (7711); exposure to an excess of EDTA): did not negatively impact activity
temperature at which activity is completely abolished (S. suis strain (7711); held at 35° C.-60° C. for 30 min before assay at 37° C.): 50 °C
